Assay [1] deals with GFP-tagged Plasmepsin V (PmV-GFP), P. falciparum clone DC6 (Plasmodium falciparum). The experiment in a line: enzyme inhibition (fluorogenic substrate cleavage), Ki calculated from IC50; bead-bound PmV-GFP at <=10 pM, 3 uM DABCYL-[…]-EDANS substrate, serial dilution of inhibitor 10 uM to 0.1 pM, 37 C, 50 mM Tris-Maleate pH 6.5, 50 mM NaCl, 0.05% TX-100, 2 mM DTT; Ki from IC50 = Ki (1 + [S]/KM).

Assay [2] shares this target.

GFP-tagged Plasmepsin V (PmV-GFP), P. falciparum clone DC6 (Plasmodium falciparum), sequence (Q8I6Z5 whole entry): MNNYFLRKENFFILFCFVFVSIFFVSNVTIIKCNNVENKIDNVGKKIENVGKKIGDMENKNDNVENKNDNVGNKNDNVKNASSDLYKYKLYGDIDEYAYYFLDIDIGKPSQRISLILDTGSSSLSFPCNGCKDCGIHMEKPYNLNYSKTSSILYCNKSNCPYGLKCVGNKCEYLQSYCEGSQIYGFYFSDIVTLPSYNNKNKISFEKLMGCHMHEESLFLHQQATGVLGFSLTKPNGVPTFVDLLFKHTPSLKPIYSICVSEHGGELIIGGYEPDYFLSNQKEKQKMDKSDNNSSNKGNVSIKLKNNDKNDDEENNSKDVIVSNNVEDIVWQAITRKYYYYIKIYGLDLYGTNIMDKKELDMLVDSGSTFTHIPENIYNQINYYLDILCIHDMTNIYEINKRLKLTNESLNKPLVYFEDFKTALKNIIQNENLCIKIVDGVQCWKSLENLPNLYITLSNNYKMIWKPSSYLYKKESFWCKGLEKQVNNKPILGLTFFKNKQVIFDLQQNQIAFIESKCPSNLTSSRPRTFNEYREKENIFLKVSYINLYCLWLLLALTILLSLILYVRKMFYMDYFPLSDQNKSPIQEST

By Ki is commonly meant the dissociation constant of the complex between target and ligand, obtained from inhibition or displacement. Compound 1 (LG20), RL[L~A]EA (peptide): the Ki in assay [1] is 0.197 nM. Moreover, in assay [2], the IC50 of inhibition of PmV cleavage of the fluorogenic HRPII-PExEl substrate (enzyme pre-mixed with inhibitor) is 0.367 nM and the IC50 of inhibition of PmV cleavage of the fluorogenic HRPII-PExEl substrate (inhibitor added after the reaction was initiated) came out at 0.329 nM.

The record behind these values is article PMC4643876, “Picomolar Inhibition of Plasmepsin V, an Essential Malaria Protease, Achieved Exploiting the Prime Region” (PLoS ONE, 2015).
